This is an account of results in PMC7007005.

Data set [1] deals with FMN-containing OdAu1aLOV (isolated LOV domain of Ochromonas danica Aureochrome1a) (Ochromonas danica). In words: SEC; analytical gel filtration of OdAu1aLOV in the lit state (column illuminated with 450 nm LEDs); HEPES 20 mM pH 7.4, NaCl 100 mM, MgCl2 10 mM, TCEP 0.3 mM; 100 μM protein.
Data set [2] shares this target. In words: SEC; concentration-dependent analytical gel filtration of lit-state OdAu1aLOV, 200 to 10 μM (Figure S6); column illuminated with 450 nm LEDs. (In gel filtration, larger molecules generally elute earlier.)
Data set [3] has as its target T1, FMN-containing OdAu1a_(bZIPLOV) (bZIP and LOV domains of Ochromonas danica Aureochrome1a) (Ochromonas danica). The data set can be described thus: SEC; analytical gel filtration of OdAu1a_(bZIPLOV) in the dark state (Figures S7-S9).
In data set [4] the target is T1, FMN-containing OdAu1a_(bZIPLOV) (bZIP …). The data set can be described thus: SEC; analytical gel filtration of OdAu1a_(bZIPLOV) in the lit state (450 nm LEDs; Figures S7-S9).
The target of data set [5] is T2, 5dFMN-containing OdAu1a_(bZIPLOV) (bZIP and LOV domains of Ochromonas danica Aureochrome1a refolded with 5-deazaflavin mononucleotide) (Ochromonas danica). In words: SEC; analytical gel filtration of OdAu1a_(bZIPLOV) in the dark state (Figures S7-S9).
Data set [6] concerns the target T2, 5dFMN-containing OdAu1a_(bZIPLOV) (bZIP …). The data set can be described thus: SEC; analytical gel filtration of OdAu1a_(bZIPLOV) in the lit state (450 nm LEDs; Figures S7-S9).
The target in data set [7] is T3, OdAu1abZIPLOV (Aureochrome1a bZIP-LOV), FMN cofactor (Ochromonas danica, UniProt C5NSW6). In words: size-exclusion chromatography; dark state, 50 uM protein; DNA binding buffer: 20 mM HEPES pH 7.4, 100 mM NaCl, 10 mM MgCl2, 1 mM TCEP; EMSA: 20 nM DNA, 10% glycerol, BSA, poly-dI-dC, at 4 C; SEC samples incubated 30 mi.
Data set [8] addresses T4, OdAu1abZIPLOV (Aureochrome1a bZIP-LOV), 5dFMN cofactor (Ochromonas danica, UniProt C5NSW6). The description is as above.
The target of data set [9] is T3, OdAu1abZIPLOV (Aureochrome1a bZIP-LOV), …. In words: EMSA; lit state (450 nm); supershifted band, putative 2:1 complex; DNA binding buffer: 20 mM HEPES pH 7.4, 100 mM NaCl, 10 mM MgCl2, 1 mM TCEP; EMSA: 20 nM DNA, 10% glycerol, BSA, poly-dI-dC, at 4 C; SEC samples incubated 30 mi. For orientation: Mobility shift assays separate free from complexed probe on a gel.
The target of data set [10] is T4, OdAu1abZIPLOV (Aureochrome1a bZIP-LOV), …. The data set can be described thus: EMSA; dark state; single shifted band, no supershift; DNA binding buffer: 20 mM HEPES pH 7.4, 100 mM NaCl, 10 mM MgCl2, 1 mM TCEP; EMSA: 20 nM DNA, 10% glycerol, BSA, poly-dI-dC, at 4 C; SEC samples incubated 30 mi.

Consider “FMN-containing OdAu1aLOV (isolated LOV domain of Ochromonas danica Aureochrome1a) (domain or fragment)”, for which the stoichiometry N in [1] and in data set [2] was 2 each time.

B1: FMN-containing OdAu1a_(bZIPLOV) (bZIP and LOV domains of Ochromonas danica Aureochrome1a) (domain or fragment)
chain: EEQKIERRERNREHAKRSRVRKKFLLESLQHSVRALEEENEKLRNAIRENLQGEAEQLLTRCSCGGPSVIASDPNTATRTLDDPDYSLVKALQTAQQNFVISDPSIPDNPIVYASQGFLTLTGYALSEVLGRNCRFLQGPETDPKAVEKVRKGLERGEDTTVVLLNYRKDGSTFWNQLFIAALRDGEGNVVNYLGVQCKVSEDYAKAFLKNEENEK
modifications: not checked
For B1, the stoichiometry N in data set [3] and in data set [4] was 2 each time.

B2: 5dFMN-containing OdAu1a_(bZIPLOV) (bZIP and LOV domains of Ochromonas danica Aureochrome1a refolded with 5-deazaflavin mononucleotide) (domain or fragment)
chain: B1 chain
modifications: not checked
In the case of B2, the stoichiometry N in data set [5] and in [6] was 2 throughout.

B3: OdAu1a recognition DNA, 24 bp, unlabelled (dsDNA)
DNA 1: TGTAGCGTCTGACGTGGTTCCCAC
DNA 2: GTGGGAACCACGTCAGACGCTACA
Turning to B3, the binding result in data set [7] and in data set [8] was “binds” each time.

B4: OdAu1a recognition DNA, TAMRA (dsDNA)
DNA 1: TGTAGCGTCTGACGTGGTTCCCAC
DNA 2: GTGGGAACCACGTCAGACGCTACA
Consider B4, for which the binding result in data set [9] and in [10] was “binds” in each case.

Usually stoichiometry N stands for a count of units in the complex or per binding partner.
